Source: article PMC8808280 (Nature, 2021)

Molecular target: T1, Receptor-associated protein (RAP) (human, UniProt P30533 35-353)
T1 sequence (looked up): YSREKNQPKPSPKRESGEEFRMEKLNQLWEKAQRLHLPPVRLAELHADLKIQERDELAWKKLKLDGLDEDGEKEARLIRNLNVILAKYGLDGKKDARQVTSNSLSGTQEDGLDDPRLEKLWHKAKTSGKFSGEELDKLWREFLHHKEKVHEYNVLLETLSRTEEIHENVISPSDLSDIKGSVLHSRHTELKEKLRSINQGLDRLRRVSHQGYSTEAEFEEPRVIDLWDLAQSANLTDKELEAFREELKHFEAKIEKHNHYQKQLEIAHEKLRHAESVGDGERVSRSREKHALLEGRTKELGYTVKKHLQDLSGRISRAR
Experiment: BLI

B1: ApoER2 isoform 1 LBD-Fc fusion protein (Fc fusion)
chain: not shown
binding result: binds
